{"source": "paper PMC3573033", "about": "“Allosteric Regulation of Serine Protease HtrA2 through Novel Non-Canonical Substrate Binding Pocket” (PLoS ONE, 2013)", "binders": {"B1": {"name": "FITC-labelled β-casein (natural protein)", "chain": "RELEELNVPGEIVESLSSSEESITRINKKIEKFQSEEQQQTEDELQDKIHPFAQTQSLVYPFPGPIPNSLPQNIPPLTQTPVVVPPFLQPEVMGVSKVKEAMAPKHKEMPFPKYPVEPFTESQSLTLTDVENLHLPLPLLQSWMHQPHQPLPPTVMFPPQSVLSLSQSKVLPVPQKAVPYPQRDMPIQAFLLYQEPVLGPVRGPFPIIV", "modifications": "FITC label"}}, "key": {"[1]": {"target": "HtrA2 (High temperature requirement protease A2), mature (Δ133 HtrA2), wild type (UniProt O43464)"}, "[2]": {"target": "HtrA2 N-SPD (N-terminal and serine protease domains, residues 1-210)"}, "[3]": {"target": "T1, HtrA2 (High temperature requirement protease A2), mature (Δ133 HtrA2), wild type (UniProt O43464 134-458)", "T1 construct": "HtrA2 (High temperature requirement protease A2), mature form Δ133, 325 amino acids; numbers count on: the mature protein; source: E. coli BL21 (DE3) pLysS, purified (nickel-IDA, gel permeation chromatography)", "T1 sequence (looked up)": "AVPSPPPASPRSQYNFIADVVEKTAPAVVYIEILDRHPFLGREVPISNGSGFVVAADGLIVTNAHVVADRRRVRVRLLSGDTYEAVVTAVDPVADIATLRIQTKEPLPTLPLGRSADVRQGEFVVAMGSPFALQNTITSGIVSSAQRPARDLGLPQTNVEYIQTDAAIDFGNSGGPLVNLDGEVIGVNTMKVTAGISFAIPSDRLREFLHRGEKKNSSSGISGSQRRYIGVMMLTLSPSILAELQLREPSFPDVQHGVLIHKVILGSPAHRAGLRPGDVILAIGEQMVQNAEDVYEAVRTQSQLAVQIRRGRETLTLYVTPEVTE", "assay": "ITC; MicroCal ITC200; 200 µl of wild type or N216A/S219A HtrA2 (20 to 50 µM) in the cell, titrated with 1.5 µl injections of 0.4 mM activator peptide; 20 mM Na2HPO4/NaH2PO4, 100 mM NaCl, pH 7.8; 25°C; one site-binding model", "settings": "both partners purified"}}, "data": [{"binder": "B1", "values": [{"measurement": "Km, cleavage of FITC-labelled β-casein (steady state kinetics)", "setting": "[1]", "result": 4.59, "unit": "µM"}, {"measurement": "Km, cleavage of FITC-labelled β-casein (steady state kinetics)", "setting": "[2]", "result": 3.02, "unit": "µM"}]}, {"binder": "SEHRRHFPNCFFV", "note": "[13mer activating peptide SEHRRHFPNCFFV]", "values": [{"measurement": "Kd", "setting": "[3]", "result": 7.5, "unit": "µM"}]}]}
